Target: the molecule itself
Assay: SEC; Superose 6 10/300 GL column; 150 mM NaCl, 20 mM HEPES, 2 mM TCEP (pH 7.4); DDM-mTRPC6 protein complex; peak assigned to the tetramer

B1: Δ94 mTRPC6 (94 aa N-terminally truncated mouse TRPC6) (domain or fragment, UniProt Q61143 95-930, looked up)
chain: SIEEERFLDAAEYGNIPVVRKMLEECHSLNVNCVDYMGQNALQLAVANEHLEITELLLKKENLSRVGDALLLAISKGYVRIVEAILNHPAFAEGKRLATSPSQSELQQDDFYAYDEDGTRFSHDVTPIILAAHCQEYEIVHTLLRKGARIERPHDYFCKCTECSQKQKHDSFSHSRSRINAYKGLASPAYLSLSSEDPVMTALELSNELAVLANIEKEFKNDYRKLSMQCKDFVVGLLDLCRNTEEVEAILNGDAETRQPGDFGRPNLSRLKLAIKYEVKKFVAHPNCQQQLLSIWYENLSGLRQQTMAVKFLVVLAVAIGLPFLALIYWCAPCSKMGKILRGPFMKFVAHAASFTIFLGLLVMNAADRFEGTKLLPNETSTDNARQLFRMKTSCFSWMEMLIISWVIGMIWAECKEIWTQGPKEYLFELWNMLDFGMLAIFAASFIARFMAFWHASKAQSIIDANDTLKDLTKVTLGDNVKYYNLARIKWDPTDPQIISEGLYAIAVVLSFSRIAYILPANESFGPLQISLGRTVKDIFKFMVIFIMVFVAFMIGMFNLYSYYIGAKQNEAFTTVEESFKTLFWAIFGLSEVKSVVINYNHKFIENIGYVLYGVYNVTMVIVLLNMLIAMINSSFQEIEDDADVEWKFARAKLWFSYFEEGRTLPVPFNLVPSPKSLLYLLLKFKKWMCELIQGQKQGFQEDAEMNKRNEEKKFGISGSHEDLSKFSLDKNQLAHNKQSSTRSSEDYHLNSFSNPPRQYQKIMKRLIKRYVLQAQIDKESDEVNEGELKEIKQDISSLRYELLEEKSQNTEDLAELIRKLGERLSLEPKLEESRR
notes: TRPC6, Mus musculus, N-terminal truncation of 94 aa (Δ94); The limit 95 follows from the printed '94 aa truncated' N-terminal truncation; Tags removed with ProTEV Plus protease; solubilised in DDM; also called Δ94 TRPC6; N-terminal truncation (Δ94) of TRPC6; source: Sf9 (baculovirus, Bac-to-Bac), purified (amylose resin, Superose 6); not shown: His8, N-terminal, cleaved; MBP, N-terminal, cleaved
With B1 the “stoichiometry N” value was 4.

B2: mouse TRPC6, full-length (WT) protein (natural protein, UniProt Q61143 1-930, looked up)
chain: MSQSPRFVTRRGGSLKAAPGAGTRRNESQDYLLMDELGDDGYPQLPLPPYGYYPSFRGNENRLTHRRQTILREKGRRLANRGPAYMFNDHSTSLSIEEERFLDAAEYGNIPVVRKMLEECHSLNVNCVDYMGQNALQLAVANEHLEITELLLKKENLSRVGDALLLAISKGYVRIVEAILNHPAFAEGKRLATSPSQSELQQDDFYAYDEDGTRFSHDVTPIILAAHCQEYEIVHTLLRKGARIERPHDYFCKCTECSQKQKHDSFSHSRSRINAYKGLASPAYLSLSSEDPVMTALELSNELAVLANIEKEFKNDYRKLSMQCKDFVVGLLDLCRNTEEVEAILNGDAETRQPGDFGRPNLSRLKLAIKYEVKKFVAHPNCQQQLLSIWYENLSGLRQQTMAVKFLVVLAVAIGLPFLALIYWCAPCSKMGKILRGPFMKFVAHAASFTIFLGLLVMNAADRFEGTKLLPNETSTDNARQLFRMKTSCFSWMEMLIISWVIGMIWAECKEIWTQGPKEYLFELWNMLDFGMLAIFAASFIARFMAFWHASKAQSIIDANDTLKDLTKVTLGDNVKYYNLARIKWDPTDPQIISEGLYAIAVVLSFSRIAYILPANESFGPLQISLGRTVKDIFKFMVIFIMVFVAFMIGMFNLYSYYIGAKQNEAFTTVEESFKTLFWAIFGLSEVKSVVINYNHKFIENIGYVLYGVYNVTMVIVLLNMLIAMINSSFQEIEDDADVEWKFARAKLWFSYFEEGRTLPVPFNLVPSPKSLLYLLLKFKKWMCELIQGQKQGFQEDAEMNKRNEEKKFGISGSHEDLSKFSLDKNQLAHNKQSSTRSSEDYHLNSFSNPPRQYQKIMKRLIKRYVLQAQIDKESDEVNEGELKEIKQDISSLRYELLEEKSQNTEDLAELIRKLGERLSLEPKLEESRR
notes: TRPC6, Mus musculus, full-length (WT) protein; Tags removed with ProTEV Plus protease; solubilised in DDM; also called mTRPC6; WT TRPC6; source: Sf9 (baculovirus, Bac-to-Bac), purified (amylose resin, Superose 6); not shown: His8, N-terminal, cleaved; MBP, N-terminal, cleaved
With B2 the “stoichiometry N” value was 4.
